{"source": "the supplement of paper PMC7877785", "test": "self-splicing fitness, log relative to wild type (ln ratio); higher = more splicing; Tetrahymena group I intron in knt gene, E. coli kanamycin selection, DiMSum; sequences stand for … in CUCUCU…GGAGGGAAAAGUUAUCAGGCAUGCACCUGGUAGCUAGUCUUUAAACCAAUAGAUUGCAUCGGUUUAAAAGGCAAGACCGUCAAAUUGCGGGAAAGGGGUCAACAGCCGUUCAGUACCAAGUCUCAGGGGAAACUUUGAGAUGGCCUUGCAAAGGGUAUGGUAAUAAGCUGACGGACAUGGUCCUAACCACGCAGCCAAGUCCUAAGUCAACAGAUCUUCUGUUGAUAUGGAUGCAGUUCACAGACUAAAUGUCGGUCGGGGAAGAUGUAUUCUUCUCAUAAGAUAUAGUCGGACCUCUCCUUAAUGGGAGCUAGCGGAUGAAGUGAUGCAACACUGGAGCCGCUGGGAACUAAUUUGUAUGCGAAAGUAUAUUGAUUAGUUUUGGAGUACUCGUGGUCG", "method_in_brief": "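Pooled colonies went to amplicon sequencing on an Illumina HiSeq 2500 after six replicate transformations. The plates were LB agar with 100 μg/mL carbenicillin, 50 μM IPTG and 0.2% rhamnose, with or without 25 μg/mL kanamycin, incubated overnight at 37°C or 30°C. The E. coli BL21(DE3) library had all eight P1ex-region intron nucleotides randomised, the intron placed in the knt kanamycin-resistance gene on pET-22b(+). DiMSum fitness is the error-weighted combination of replicate fold changes, kanamycin against none, normalised to wild type.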", "note": "± gives the uncertainty stated by the source."}
{"sequence": "GUAUAGCAAUAUUACGAGAG", "values": [{"measurement": "self-splicing fitness (ln)", "setting": "30 °C", "value": "-1.56 ± 0.22"}, {"measurement": "self-splicing fitness (ln)", "setting": "37 °C", "value": "-2.9 ± 0.34"}]}
{"sequence": "UGGCAGCAAUAUUACGUUCU", "values": [{"measurement": "self-splicing fitness (ln)", "setting": "30 °C", "value": "0.076 ± 0.06"}, {"measurement": "self-splicing fitness (ln)", "setting": "37 °C", "value": "0.0497 ± 0.069"}]}
{"sequence": "AAUAAGCAAUAUUACGAGGG", "values": [{"measurement": "self-splicing fitness (ln)", "setting": "30 °C", "value": "-3.7 ± 0.37"}, {"measurement": "self-splicing fitness (ln)", "setting": "37 °C", "value": "-2.9 ± 0.34"}]}
{"sequence": "ACCGAGCAAUAUUACGCAUA", "values": [{"measurement": "self-splicing fitness (ln)", "setting": "30 °C", "value": "-2.42 ± 0.21"}, {"measurement": "self-splicing fitness (ln)", "setting": "37 °C", "value": "-2.57 ± 0.2"}]}
{"sequence": "GUCAAGCAAUAUUACGUAAA", "values": [{"measurement": "self-splicing fitness (ln)", "setting": "30 °C", "value": "-0.78 ± 0.058"}, {"measurement": "self-splicing fitness (ln)", "setting": "37 °C", "value": "-0.463 ± 0.07"}]}
{"sequence": "UCAUAGCAAUAUUACGCGGA", "values": [{"measurement": "self-splicing fitness (ln)", "setting": "30 °C", "value": "-2.71 ± 0.18"}, {"measurement": "self-splicing fitness (ln)", "setting": "37 °C", "value": "-0.822 ± 0.11"}]}
{"sequence": "ACGGAGCAAUAUUACGCAGA", "values": [{"measurement": "self-splicing fitness (ln)", "setting": "30 °C", "value": "-2.52 ± 0.36"}, {"measurement": "self-splicing fitness (ln)", "setting": "37 °C", "value": "-2.02 ± 0.29"}]}
{"sequence": "ACAUAGCAAUAUUACGGUCU", "values": [{"measurement": "self-splicing fitness (ln)", "setting": "30 °C", "value": "-1.46 ± 0.071"}, {"measurement": "self-splicing fitness (ln)", "setting": "37 °C", "value": "-0.428 ± 0.089"}]}
{"sequence": "GACUAGCAAUAUUACGACGC", "values": [{"measurement": "self-splicing fitness (ln)", "setting": "30 °C", "value": "0.125 ± 0.1"}, {"measurement": "self-splicing fitness (ln)", "setting": "37 °C", "value": "0.0388 ± 0.14"}]}
{"sequence": "ACACAGCAAUAUUACGACGA", "values": [{"measurement": "self-splicing fitness (ln)", "setting": "30 °C", "value": "-0.721 ± 0.074"}, {"measurement": "self-splicing fitness (ln)", "setting": "37 °C", "value": "-0.406 ± 0.081"}]}
{"sequence": "AAGCAGCAAUAUUACGUCAA", "values": [{"measurement": "self-splicing fitness (ln)", "setting": "30 °C", "value": "-1.1 ± 0.091"}, {"measurement": "self-splicing fitness (ln)", "setting": "37 °C", "value": "-1.36 ± 0.096"}]}
{"sequence": "UCAGAGCAAUAUUACGCACG", "values": [{"measurement": "self-splicing fitness (ln)", "setting": "30 °C", "value": "-3.39 ± 0.29"}, {"measurement": "self-splicing fitness (ln)", "setting": "37 °C", "value": "-1.37 ± 0.21"}]}
{"sequence": "UUGCAGCAAUAUUACGUCCA", "values": [{"measurement": "self-splicing fitness (ln)", "setting": "30 °C", "value": "-0.493 ± 0.1"}, {"measurement": "self-splicing fitness (ln)", "setting": "37 °C", "value": "0.00855 ± 0.088"}]}
{"sequence": "CGGGAGCAAUAUUACGUCGU", "values": [{"measurement": "self-splicing fitness (ln)", "setting": "30 °C", "value": "-3.3 ± 0.26"}, {"measurement": "self-splicing fitness (ln)", "setting": "37 °C", "value": "-2.35 ± 0.3"}]}
{"sequence": "AGUGAGCAAUAUUACGGUCC", "values": [{"measurement": "self-splicing fitness (ln)", "setting": "30 °C", "value": "-0.948 ± 0.12"}, {"measurement": "self-splicing fitness (ln)", "setting": "37 °C", "value": "-0.741 ± 0.15"}]}
{"sequence": "GUGGAGCAAUAUUACGCCGG", "values": [{"measurement": "self-splicing fitness (ln)", "setting": "30 °C", "value": "-2.57 ± 0.46"}]}
{"sequence": "CCGCAGCAAUAUUACGCGUC", "values": [{"measurement": "self-splicing fitness (ln)", "setting": "30 °C", "value": "-3 ± 0.13"}, {"measurement": "self-splicing fitness (ln)", "setting": "37 °C", "value": "-3.01 ± 0.23"}]}
{"sequence": "UUCCAGCAAUAUUACGAUCC", "values": [{"measurement": "self-splicing fitness (ln)", "setting": "30 °C", "value": "-1.46 ± 0.45"}]}
{"sequence": "GUCGAGCAAUAUUACGGCUU", "values": [{"measurement": "self-splicing fitness (ln)", "setting": "37 °C", "value": "-0.65 ± 0.49"}]}
{"sequence": "CAUAAGCAAUAUUACGGCGU", "values": [{"measurement": "self-splicing fitness (ln)", "setting": "30 °C", "value": "-2.7 ± 0.15"}, {"measurement": "self-splicing fitness (ln)", "setting": "37 °C", "value": "-0.836 ± 0.12"}]}
{"sequence": "AACGAGCAAUAUUACGACAG", "values": [{"measurement": "self-splicing fitness (ln)", "setting": "37 °C", "value": "-2.37 ± 0.28"}]}
{"sequence": "AUCAAGCAAUAUUACGCUGU", "values": [{"measurement": "self-splicing fitness (ln)", "setting": "30 °C", "value": "-2.62 ± 0.097"}, {"measurement": "self-splicing fitness (ln)", "setting": "37 °C", "value": "-1.1 ± 0.084"}]}
{"sequence": "UUCGAGCAAUAUUACGGUCA", "values": [{"measurement": "self-splicing fitness (ln)", "setting": "30 °C", "value": "-1.71 ± 0.15"}, {"measurement": "self-splicing fitness (ln)", "setting": "37 °C", "value": "-1.26 ± 0.13"}]}
{"sequence": "UCCUAGCAAUAUUACGGAAA", "values": [{"measurement": "self-splicing fitness (ln)", "setting": "30 °C", "value": "-1.98 ± 0.23"}, {"measurement": "self-splicing fitness (ln)", "setting": "37 °C", "value": "-2.51 ± 0.29"}]}
{"sequence": "UCCAAGCAAUAUUACGGAGG", "values": [{"measurement": "self-splicing fitness (ln)", "setting": "30 °C", "value": "-4.42 ± 0.27"}, {"measurement": "self-splicing fitness (ln)", "setting": "37 °C", "value": "-2.81 ± 0.29"}]}
{"sequence": "ACCAAGCAAUAUUACGCAAA", "values": [{"measurement": "self-splicing fitness (ln)", "setting": "30 °C", "value": "-1.56 ± 0.12"}, {"measurement": "self-splicing fitness (ln)", "setting": "37 °C", "value": "-1.74 ± 0.15"}]}
{"sequence": "GCGAAGCAAUAUUACGAGGA", "values": [{"measurement": "self-splicing fitness (ln)", "setting": "37 °C", "value": "-1.58 ± 0.31"}]}
{"sequence": "GCUAAGCAAUAUUACGCUGA", "values": [{"measurement": "self-splicing fitness (ln)", "setting": "30 °C", "value": "-1.48 ± 0.18"}, {"measurement": "self-splicing fitness (ln)", "setting": "37 °C", "value": "-1.02 ± 0.2"}]}
{"sequence": "CACAAGCAAUAUUACGUUCU", "values": [{"measurement": "self-splicing fitness (ln)", "setting": "30 °C", "value": "-2.84 ± 0.12"}, {"measurement": "self-splicing fitness (ln)", "setting": "37 °C", "value": "-2.42 ± 0.12"}]}
{"sequence": "CUCAAGCAAUAUUACGGGUC", "values": [{"measurement": "self-splicing fitness (ln)", "setting": "30 °C", "value": "-4.31 ± 0.17"}, {"measurement": "self-splicing fitness (ln)", "setting": "37 °C", "value": "-2.48 ± 0.12"}]}
{"sequence": "AACAAGCAAUAUUACGCAAU", "values": [{"measurement": "self-splicing fitness (ln)", "setting": "30 °C", "value": "-1.37 ± 0.096"}, {"measurement": "self-splicing fitness (ln)", "setting": "37 °C", "value": "-1.09 ± 0.12"}]}
{"sequence": "GGCUAGCAAUAUUACGUCAA", "values": [{"measurement": "self-splicing fitness (ln)", "setting": "30 °C", "value": "-1.34 ± 0.11"}, {"measurement": "self-splicing fitness (ln)", "setting": "37 °C", "value": "-0.747 ± 0.12"}]}
{"sequence": "CAUCAGCAAUAUUACGGACU", "values": [{"measurement": "self-splicing fitness (ln)", "setting": "30 °C", "value": "-3.78 ± 0.22"}, {"measurement": "self-splicing fitness (ln)", "setting": "37 °C", "value": "-0.896 ± 0.13"}]}
{"sequence": "CUACAGCAAUAUUACGAUGU", "values": [{"measurement": "self-splicing fitness (ln)", "setting": "30 °C", "value": "-3.46 ± 0.17"}, {"measurement": "self-splicing fitness (ln)", "setting": "37 °C", "value": "-2.44 ± 0.19"}]}
{"sequence": "AACAAGCAAUAUUACGAACA", "values": [{"measurement": "self-splicing fitness (ln)", "setting": "30 °C", "value": "-1.16 ± 0.11"}, {"measurement": "self-splicing fitness (ln)", "setting": "37 °C", "value": "-0.392 ± 0.11"}]}
